Data on eight molecules can be found in article PMC7555893, “Structural role of essential light chains in the apicomplexan glideosome” (Communications Biology, 2020).

In experiment [1] the target is Pre-complex of TgELC2 with TgMyoA-C (T. gondii) (UniProt O00934). The experiment in a line: ITC; 200 uM protein (syringe) injected 19 x 2 uL into 20 uM pre-formed complex of light chain and MyoA peptide (cell, 1:1.1); 20 mM HEPES pH 7.5, 150 mM NaCl, 0.5 mM TCEP with 1 mM CaCl2; 25 °C; one-site model.
In experiment [2] the target is P. falciparum myosin A tail-interacting protein, short construct (MTIP-S) (P. falciparum 3D7) (UniProt Q8I4W8). As to the kind of experiment: ITC; MTIP in the cell, PfMyoA peptide in the syringe; one-site model; the conditions of this titration are not told.
Experiment [3] deals with Pre-complex of TgELC1 with TgMyoA-C (T. gondii) (UniProt O00934). The experiment in a line: ITC; 200 uM protein (syringe) injected 19 x 2 uL into 20 uM pre-formed complex of light chain and MyoA peptide (cell, 1:1.1); 20 mM HEPES pH 7.5, 150 mM NaCl, 0.5 mM TCEP with 1 mM CaCl2; 25 °C; one-site model.
Experiment [4] concerns the target Pre-complex of TgELC2 R17A with TgMyoA-C (T. gondii) (UniProt O00934). The experiment is described as above.
The target of experiment [5] is T. gondii essential light chain 1 (TgELC1) (T. gondii). As to the kind of experiment: ITC; 200 uM peptide (syringe) injected 19 x 2 uL into 20 uM protein (cell); 20 mM HEPES pH 7.5, 150 mM NaCl, 0.5 mM TCEP with 5 mM EDTA; 25 °C; one-site model.
Experiment [6] deals with T. gondii essential light chain 2 (TgELC2) (T. gondii). Described as above.
The target in the next experiment is TgELC2 E10A (T. gondii). The experiment in a line: ITC; 200 uM peptide (syringe) injected 19 x 2 uL into 20 uM protein (cell); 20 mM HEPES pH 7.5, 150 mM NaCl, 0.5 mM TCEP with 5 mM CaCl2; 25 °C; one-site model.
In another experiment the target is TgELC2 S102A (T. gondii). The experiment is described as above.
Experiment [7] concerns the target T. gondii essential light chain 1 (TgELC1) (T. gondii). The experiment is described as above.
The target in a further experiment is TgELC2 F79A (T. gondii). The experiment is described as above.
Experiment [8] has as its target T. gondii essential light chain 2 (TgELC2) (T. gondii). Described as above.
The next experiment has as its target TgELC2 S101A (T. gondii). Described as above.
Experiment [9] concerns the target TgELC2 S102E (phosphomimetic) (T. gondii). The description is as above.
Experiment [10] addresses TgELC2 E10A+H110A (T. gondii). Described as above.
A further experiment has as its target T1, MTIP residues 77-204 (P. falciparum 3D7, UniProt Q8I4W8 77-204).
T1 construct: source: recombinantly expressed as a dimeric complex with PfMyoA-C, purified with PfELC (NiNTA IMAC, TEV, SEC)
T1 sequence: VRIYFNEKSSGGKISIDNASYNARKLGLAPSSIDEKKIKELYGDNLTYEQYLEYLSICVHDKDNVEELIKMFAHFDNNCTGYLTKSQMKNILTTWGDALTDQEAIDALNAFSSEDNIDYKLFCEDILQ
The experiment in a line: crystal structure. The conditions noted are these: both partners purified.

The target of experiment [11] is T2, Pre-complex of MTIP-S with PfMyoA-C (P. falciparum 3D7 | P. falciparum, UniProt Q8I4W8;Q8IDR3).
T2 construct: also called MTIP pre-complex with MyoA-C; MTIP/PfMyoA-C complex; source: formed from purified MTIP-S (E. coli) and the MyoA peptide in 1:1.1 molar ratio, 1 h at 4 °C
T2 sequence 1: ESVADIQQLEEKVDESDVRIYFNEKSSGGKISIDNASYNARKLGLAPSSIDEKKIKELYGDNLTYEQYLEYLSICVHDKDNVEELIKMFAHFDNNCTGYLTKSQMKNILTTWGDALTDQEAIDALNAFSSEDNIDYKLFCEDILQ
T2 sequence 2: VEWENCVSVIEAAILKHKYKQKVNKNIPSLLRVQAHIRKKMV
The experiment in a line: ITC; 200 uM protein (syringe) injected 19 x 2 uL into 20 uM pre-formed complex of light chain and MyoA peptide (cell, 1:1.1); 20 mM HEPES pH 7.5, 150 mM NaCl, 0.5 mM TCEP with 1 mM CaCl2; 25 °C; one-site model. Particulars: both partners purified.

In experiment [1], MLC1-S K168A (domain or fragment) gave an equilibrium dissociation constant (Kd) of 1.2 nM, a dH of -47.7 kcal/mol and a stoichiometry N of 0.79.

As to MLC1-S Q169A (domain or fragment), in experiment [1], the dissociation constant (Kd) was found to be 2.3 nM, the dH was -48.8 kcal/mol and the stoichiometry N amounted to 0.89.

For PfMyoA-C^ELC peptide, in experiment [2], the Kd was found to be 303 nM, the dH was -14.4 kcal/mol and the stoichiometry N was determined as 0.74.

Take “T. gondii myosin light chain 1, short construct (MLC1-S) (domain or fragment)”: in [3], the equilibrium dissociation constant (Kd) turned out to be 4.7 nM and the dH is -39.1 kcal/mol. In [4], this molecule returned a Kd of 4.6 nM and a dH of -49.7 kcal/mol. Besides, in [1], the dissociation constant Kd amounted to 0.6 nM, the dH is -47.6 kcal/mol and the stoichiometry N worked out at 0.81.

In the case of “TgMyoA-C^ELC peptide (from UniProt O00934 777-798)”, the Kd in experiment [5] worked out at 57 nM; in experiment [6] it was 82 nM; with TgELC2 E10A (T. gondii), 190 nM; with TgELC2 S102A (T. gondii) it was 76 nM; in [7] it was 36 nM; with TgELC2 F79A (T. gondii), 280 nM. The Kd in experiment [8] was 39 nM; with TgELC2 S101A (T. gondii), 280 nM; in experiment [9], 140 nM; in experiment [10], 1100 nM. In addition, the dH in experiment [5] was -13 kcal/mol; in [6] it was -18 kcal/mol; with TgELC2 E10A (T. gondii), -17 kcal/mol; in the experiment with TgELC2 S102A (T. gondii) it was -16 kcal/mol; in [7] it was -13 kcal/mol; with TgELC2 F79A (T. gondii), -18 kcal/mol. In addition, the dH is -15 kcal/mol in experiment [8], -18 kcal/mol with TgELC2 S101A (T. gondii), -18 kcal/mol in experiment [9] and -21 kcal/mol in experiment [10]. Moreover, the stoichiometry N came to 0.81 in experiment [5]; 0.77 in experiment [6]; 0.79 with TgELC2 E10A (T. gondii); 0.79 with TgELC2 S102A (T. gondii); 1.05 in [7]; 0.84 in the experiment with TgELC2 F79A (T. gondii). Moreover, the stoichiometry N came out at 0.85 in [8], 0.88 with TgELC2 S101A (T. gondii), 0.77 in experiment [9] and 0.75 in experiment [10].

As for VEWENCVSVIEAAILKHKYKQKVNKNIPSLLRVQAHIRKKMV (domain or fragment) [PfMyoA-C (775-816), recombinant, expressed with MTIP 77-204], the binding result in the experiment with MTIP residues 77-204 is “binds”.

B1: P. falciparum essential light chain (PfELC) (natural protein)
chain: MASDMEEKFREAFILFSSCSDHIEMYKFFELMNSFGIILTNDEKAALPNDINMDYWLNFAKKHYNYEQPFKHINNVNEQNTNVQIKIDNFLGIMKALDTRLTESDLNILLQITNPENKSTLNLKTVSQKLTESI
notes: also called full-length PfELC; source: E. coli BL21-CodonPlus(DE3)-RIL, purified (Ni-IMAC, TEV, SEC)
For B1, in experiment [11], the Kd was 109 ± 6.2 nM, the dH was -13.4 ± 0.1 kcal/mol and the “stoichiometry N” value stood at 0.86 ± 0.01.

B2: PfELC S127D (phosphomimetic) (natural protein)
chain: MASDMEEKFREAFILFSSCSDHIEMYKFFELMNSFGIILTNDEKAALPNDINMDYWLNFAKKHYNYEQPFKHINNVNEQNTNVQIKIDNFLGIMKALDTRLTESDLNILLQITNPENKSTLNLKTVDQKLTESI
notes: source: E. coli, purified (expressed and purified under identical conditions as the wild type)
B2: in experiment [11], binding was characterised by a dissociation constant (Kd) of 260 ± 26 nM, the dH was -12.6 ± 0.2 kcal/mol and the “stoichiometry N” value came to 0.81 ± 0.01.
